The values below come from ChEMBL document CHEMBL2073963, “Transport of methotrexate (MTX) and folates by multidrug resistance protein (MRP) 3 and MRP1: effect of polyglutamylation on MTX transport” (Cancer Res, 2001).

What all share (assay type): functional, cell membranes
Substrate in data set [1]: CN(Cc1cnc2nc(N)nc(N)c2n1)c1ccc(C(=O)N[C@@H](CCC(=O)O)C(=O)O)cc1
The data set can be described thus: TP_TRANSPORTER: uptake in membrane vesicle from MRP1-expressing NIH3T3 cells.

Substrate in data set [2]: CN(Cc1cnc2nc(N)nc(N)c2n1)c1ccc(C(=O)N[C@@H](CCC(=O)O)C(=O)O)cc1
The data set is described as follows: (§1) TP_TRANSPORTER: uptake in membrane vesicles from MRP3-expressing HEK293 cells. As to conditions: Membrane vesicle.

Substrate in data set [3]: Nc1nc(=O)c2c([nH]1)NCC(CNc1ccc(C(=O)N[C@@H](CCC(=O)O)C(=O)O)cc1)N2C=O
Described as §1. As to conditions: Membrane vesicle.

Substrate in data set [4]: Nc1nc(=O)c2nc(CNc3ccc(C(=O)N[C@@H](CCC(=O)O)C(=O)O)cc3)cnc2[nH]1
The description is as §1. As to conditions: Membrane vesicle.

B1: Multidrug resistance-associated protein 1 (Homo sapiens) (protein)
chain: MALRGFCSADGSDPLWDWNVTWNTSNPDFTKCFQNTVLVWVPCFYLWACFPFYFLYLSRHDRGYIQMTPLNKTKTALGFLLWIVCWADLFYSFWERSRGIFLAPVFLVSPTLLGITMLLATFLIQLERRKGVQSSGIMLTFWLVALVCALAILRSKIMTALKEDAQVDLFRDITFYVYFSLLLIQLVLSCFSDRSPLFSETIHDPNPCPESSASFLSRITFWWITGLIVRGYRQPLEGSDLWSLNKEDTSEQVVPVLVKNWKKECAKTRKQPVKVVYSSKDPAQPKESSKVDANEEVEALIVKSPQKEWNPSLFKVLYKTFGPYFLMSFFFKAIHDLMMFSGPQILKLLIKFVNDTKAPDWQGYFYTVLLFVTACLQTLVLHQYFHICFVSGMRIKTAVIGAVYRKALVITNSARKSSTVGEIVNLMSVDAQRFMDLATYINMIWSAPLQVILALYLLWLNLGPSVLAGVAVMVLMVPVNAVMAMKTKTYQVAHMKSKDNRIKLMNEILNGIKVLKLYAWELAFKDKVLAIRQEELKVLKKSAYLSAVGTFTWVCTPFLVALCTFAVYVTIDENNILDAQTAFVSLALFNILRFPLNILPMVISSIVQASVSLKRLRIFLSHEELEPDSIERRPVKDGGGTNSITVRNATFTWARSDPPTLNGITFSIPEGALVAVVGQVGCGKSSLLSALLAEMDKVEGHVAIKGSVAYVPQQAWIQNDSLRENILFGCQLEEPYYRSVIQACALLPDLEILPSGDRTEIGEKGVNLSGGQKQRVSLARAVYSNADIYLFDDPLSAVDAHVGKHIFENVIGPKGMLKNKTRILVTHSMSYLPQVDVIIVMSGGKISEMGSYQELLARDGAFAEFLRTYASTEQEQDAEENGVTGVSGPGKEAKQMENGMLVTDSAGKQLQRQLSSSSSYSGDISRHHNSTAELQKAEAKKEETWKLMEADKAQTGQVKLSVYWDYMKAIGLFISFLSIFLFMCNHVSALASNYWLSLWTDDPIVNGTQEHTKVRLSVYGALGISQGIAVFGYSMAVSIGGILASRCLHVDLLHSILRSPMSFFERTPSGNLVNRFSKELDTVDSMIPEVIKMFMGSLFNVIGACIVILLATPIAAIIIPPLGLIYFFVQRFYVASSRQLKRLESVSRSPVYSHFNETLLGVSVIRAFEEQERFIHQSDLKVDENQKAYYPSIVANRWLAVRLECVGNCIVLFAALFAVISRHSLSAGLVGLSVSYSLQVTTYLNWLVRMSSEMETNIVAVERLKEYSETEKEAPWQIQETAPPSSWPQVGRVEFRNYCLRYREDLDFVLRHINVTINGGEKVGIVGRTGAGKSSLTLGLFRINESAEGEIIIDGINIAKIGLHDLRFKITIIPQDPVLFSGSLRMNLDPFSQYSDEEVWTSLELAHLKDFVSALPDKLDHECAEGGENLSVGQRQLVCLARALLRKTKILVLDEATAAVDLETDDLIQSTIRTQFEDCTVLTIAHRLNTIMDYTRVIVLDKGEIQEYGAPSDLLQQRGLFYSMAKDAGLV
For orientation: Km means the substrate concentration at which the rate is half of its maximum. B1: the Km in data set [1] was determined as 2150 µM.

B2: Multidrug resistance associated protein (Homo sapiens), Q96QA9 (protein)
chain: MDALCGSGELGSKFWDSNLSVHTENPDLTPCFQNSLLAWVPCIYLWVALPCYLLYLRHHCRGYIILSHLSKLKMVLGVLLWCVSWADLFYSFHGLVHGRAPAPVFFVTPLVVGVTMLLATLLIQYERLQGVQSSGVLIIFWFLCVVCAIVPFRSKILLAKAEGEISDPFRFTTFYIHFALVLSALILACFREKPPFFSAKNVDPNPYPETSAGFLSRLFFWWFTKMAIYGYRHPLEEKDLWSLKEEDRSQMVVQQLLEAWRKQEKQTARHKASAAPGKNASGEDEVLLGARPRPRKPSFLKALLATFGSSFLISACFKLIQDLLSFINPQLLSILIRFISNPMAPSWWGFLVAGLMFLCSMMQSLILQHYYHYIFVTGVKFRTGIMGVIYRKALVITNSVKRASTVGEIVNLMSVDAQRFMDLAPFLNLLWSAPLQIILAIYFLWQNLGPSVLAGVAFMVLLIPLNGAVAVKMRAFQVKQMKLKDSRIKLMSEILNGIKVLKLYAWEPSFLKQVEGIRQGELQLLRTAAYLHTTTTFTWMCSPFLVTLITLWVYVYVDPNNVLDAEKAFVSVSLFNILRLPLNMLPQLISNLTQASVSLKRIQQFLSQEELDPQSVERKTISPGYAITIHSGTFTWAQDLPPTLHSLDIQVPKGALVAVVGPVGCGKSSLVSALLGEMEKLEGKVHMKGSVAYVPQQAWIQNCTLQENVLFGKALNPKRYQQTLEACALLADLEMLPGGDQTEIGEKGINLSGGQRQRVSLARAVYSDADIFLLDDPLSAVDSHVAKHIFDHVIGPEGVLAGKTRVLVTHGISFLPQTDFIIVLADGQVSEMGPYPALLQRNGSFANFLCNYAPDEDQGHLEDSWTALEGAEDKEALLIEDTLSNHTDLTDNDPVTYVVQKQFMRQLSALSSDGEGQGRPVPRRHLGPSEKVQVTEAKADGALTQEEKAAIGTVELSVFWDYAKAVGLCTTLAICLLYVGQSAAAIGANVWLSAWTNDAMADSRQNNTSLRLGVYAALGILQGFLVMLAAMAMAAGGIQAARVLHQALLHNKIRSPQSFFDTTPSGRILNCFSKDIYVVDEVLAPVILMLLNSFFNAISTLVVIMASTPLFTVVILPLAVLYTLVQRFYAATSRQLKRLESVSRSPIYSHFSETVTGASVIRAYNRSRDFEIISDTKVDANQRSCYPYIISNRWLSIGVEFVGNCVVLFAALFAVIGRSSLNPGLVGLSVSYSLQVTFALNWMIRMMSDLESNIVAVERVKEYSKTETEAPWVVEGSRPPEGWPPRGEVEFRNYSVRYRPGLDLVLRDLSLHVHGGEKVGIVGRTGAGKSSMTLCLFRILEAAKGEIRIDGLNVADIGDPILFSGTLRMNLDPFGSYSEEDIWWALELSHLHTFVSSQPAGLDFQCSEGGENLSVGQRQLVCLARALLRKSRILVLDEATAAIDLETDNLIQATIRTQFDTCTVLTIAHRLNTIMDYTRVLVLDKGVVAEFDSPANLIAARGIFYGMARDAGLA
For B2, the Km in data set [2] is 620 µM; in data set [3], 1740 µM; in data set [4], 1960 µM.
